From publication PMC9428257, “Developing high-affinity decoy receptors to treat multiple myeloma and diffuse large B cell lymphoma” (The Journal of Experimental Medicine, 2022) come the findings set out here.

In this experiment the target is T1, human BAFF (B cell activating factor) (human, UniProt Q9Y275 134-285).
T1 construct: also called hBAFF
Kind of experiment: flow cytometry on cells; yeast-displayed sBCMA (wild type or mutant clone) incubated with increasing concentrations of soluble APRIL or BAFF; same reagents and protocols as the library sorts (PBS with 0.1% BSA, room temperature); KD from a one site-specific binding fit in GraphPad Prism. The settings on record: one partner purified.

T1 sequence (Q9Y275 134-285): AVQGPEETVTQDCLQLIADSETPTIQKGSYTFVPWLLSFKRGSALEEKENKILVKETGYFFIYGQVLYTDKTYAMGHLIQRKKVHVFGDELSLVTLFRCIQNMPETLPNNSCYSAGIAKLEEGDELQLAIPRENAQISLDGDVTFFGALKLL

B1: yeast-displayed mutant sBCMA V3 (S16G, H19Y, T36A, N53D) (domain or fragment, human, UniProt Q02223 1-54, looked up)
chain: MLQMAGQCSQNEYFDGLLYACIPCQLRCSSNTPPLACQRYCNASVTNSVKGTDA
notes: B cell maturation antigen (BCMA), human, extracellular domain, amino acids Met1-Ala54, with the four V3 mutations
In general, Kd refers to the concentration at which binding is half-saturated. A lower Kd goes with a tighter complex. B1 showed a Kd of 9 pM.
